Bridges are numbered along the chain shown (N, C = ends). Where no end group is shown, it is not given here. [ ]: non-standard residue; d: D form. NMeR = CN[C@@H](CCCNC(=N)N)C(=O)O; Pen = CC(C)(S)[C@H](N)C(=O)O
Test: Simulated Intestinal Fluid (SIF) Stability Assay
Type: in vitro ADME
Conditions: compared to SEQ ID NO: 39 with Cys or to monomer subunits
Description: Simulated Intestinal Fluid (SIF) Stability Assay
Studies were carried out in simulated intestinal fluid (SIF) to evaluate gastric stability of the dimer molecules of the instant invention. SIF was prepared by adding 6.8 g of monobasic potassium phosphate and 10.0 g of pancreatin to 1.0 L of water. After dissolution, the pH was adjusted to 6.8 using NaOH. DMSO stocks (2 mM) were first prepared for the test compounds. Aliquots of the DMSO solutions were dosed into 6 individual tubes, each containing 0.5 mL of SIF, which had been pre-warmed to 37° C.
The final test compound concentration was 20 μM. The vials were kept in a benchtop Thermomixer® for the duration of the experiment. At each timepoint (0, 5, 10, 20, 40, and 60 minutes), 1.0 mL of acetonitrile containing 1% formic acid was added to one vial to terminate the reaction. Samples were stored at 4° C. until the end of the experiment. […] Aliquots of the supernatant were removed, diluted 1:1 into distilled water containing internal standard, and analyzed by LCMS/MS. Percent remaining at each timepoint was calculated based on the peak area response ratio of test to compound to internal standard. Time 0 was set to 100%, and all later timepoints were calculated relative to time 0. Half-lives were calculated by fitting to a first-order exponential decay equation using GraphPad. […]

SEQ ID NO: 102: homodimer of monomer subunit with Pen in place of Cys and N-Me-Arg, dimerized at C-termini (K[Pen][NMeR]SDTL[Pen]W; disulfide 2-8 (inferred); also: homodimer dimerized at C-termini)
stability in simulated intestinal fluids (SIF) (in words): increased stability significantly

From patent US9273093B2, “α4β7 peptide dimer antagonists” (Protagonist Therapeutics, Inc., priority 2012, dated 2016)
